This passage reports protein stability index results from the supplement of paper PMC10567573.

The series can be described thus: protein stability index of a GFP-peptide fusion (GPS, HEK-293T) (PSI 1-6); higher = more stable.
The mark [1] stands for this setting: treatment: DMSO, c terminus: a fixed tail appended.
The mark [2] stands for this setting: treatment: MLN4924 1 uM, 8 h, c terminus: a fixed tail appended.

± gives the standard deviation.
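Note: 24-mer peptide tiles fused after GFP, lentivirally expressed, FACS-sorted into six equal bins by GFP/DsRed ratio, decoded by Illumina sequencing, PSI is the read-weighted mean bin number.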

Take PGDPKWLDVIERDLHRQFPFHEMF [TBC1D10A]: the protein stability index runs as follows: under setting [1], 2.46 ± 0.31; under setting [2], 2.57 ± 0.41.

With PGLPGSTGNPKSEEPEVPDQEGLQ [SPNS1], the protein stability index runs as follows: under setting [1], 5.39 ± 0.75; under setting [2], 4.88 ± 0.22.

For PGPQDPEESASRQRFGEALQDQEK [ELOA2], the protein stability index reads like this: under setting [1], 5.53 ± 0.29; under setting [2], 5.68 ± 0.16.

The sequence PGPQGSAGQRGEPGPKGDPGEKSH [EMID1] gave a protein stability index under setting [1] of 5.62 ± 0.4 and a protein stability index under setting [2] of 5.49 ± 0.26.

With PGQPLPGASVRGLHPVQKVILNYP [TRAF3IP2], the protein stability index by setting is: under setting [1], 3.55 ± 0.36; under setting [2], 3.45 ± 0.52.

Turning to PGRGVYLLKFDNSYSLWRSKSVYY [ACBD3], the protein stability index reads like this: under setting [1], 2.78 ± 0.52; under setting [2], 2.69 ± 0.76.

As to PKAKAKAKAKAKDQTKAQAAAPAS [RPL29], the protein stability index under setting [1] worked out at 5.2 ± 0.22 and the protein stability index under setting [2] turned out to be 5.21 ± 0.072.

PKTMSQKEMEQLFSQYGRIITSRI [ELAVL3]: the protein stability index reads like this: under setting [1], 2.68 ± 0.18; under setting [2], 2.76 ± 0.35.

PLDMFSEEIKFYELGEEAMEKFRE [KCNA1] returned a protein stability index under setting [1] of 4.71 ± 0.31 and a protein stability index under setting [2] of 4.85 ± 0.12.

Take PLPAGSLPPYPPYFEGAPFPHPLW [PWWP2B]: the protein stability index is 2.58 ± 0.31 under setting [1] and 2.64 ± 0.37 under setting [2].

Turning to PLSPPPINYNGIFSLKQEETLDYG [NEUROD6], the protein stability index amounted to 4.63 ± 0.38 under setting [1] and 4.36 ± 0.37 under setting [2].

For the sequence PNYEFKLGKITFIRNSRPLVKKVE [UFD1], the protein stability index runs as follows: under setting [1], 2.62 ± 0.5; under setting [2], 2.77 ± 0.35.

With PPALQNNLLSPLLTGTESPFDLEQ [NFE2L1], the protein stability index was determined as 4.97 ± 0.29 under setting [1] and 5.04 ± 0.1 under setting [2].

PPARPRPRSPECRMIPGQPPASAR [IRX6]: the protein stability index stood at 4.95 ± 0.21 under setting [1] and 4.9 ± 0.12 under setting [2].

For the sequence PPFMIALACLHVACVVQQKDARQW [CCNC], the protein stability index is, setting by setting: under setting [1], 3.3 ± 0.18; under setting [2], 3.08 ± 0.35.

Consider PPKSVNPTCMCCQATSSTACHIQ [FAM219A], for which the protein stability index was determined as 2.92 ± 0.29 (treatment: DMSO, c terminus: native) and 3.07 ± 0.16 (treatment: MLN4924 1 uM, 8 h, c terminus: native).

Turning to PPLRNYFLEEDNYKNIKRPPGDIM [USP39], the protein stability index worked out at 3.19 ± 0.19 under setting [1] and 3.37 ± 0.17 under setting [2].

In the case of PPLSGRSTPKLTSRSAAQDLDRMG [PPFIA4], the protein stability index under setting [1] turned out to be 4.49 ± 0.19 and the protein stability index under setting [2] amounted to 4.62 ± 0.096.

On to PPPVESELALFQMSVLWLEHDRET [KLHL14], for which the protein stability index stood at 3.18 ± 0.085 under setting [1] and 3.25 ± 0.23 under setting [2].

PPSEPVPSLEDISCNTWPSMPSYS [TBX5]: the protein stability index by setting is: under setting [1], 4.269 ± 0.038; under setting [2], 4.38 ± 0.19.

Sequence PPYQGGPPRPPMGMRPPVMSQGGR [ZNF207] displayed a protein stability index under setting [1] of 4.68 ± 0.34 and a protein stability index under setting [2] of 4.91 ± 0.16.

Regarding PQELLEWELVVLGKLKWNLAAVTP [CCND2], the protein stability index is 2.47 ± 0.77 under setting [1] and 2.36 ± 0.57 under setting [2].

Regarding PQELLQSQDFVGEKLGSGEPSHSV [ATE1], the protein stability index was found to be 5.11 ± 0.17 under setting [1] and 5.43 ± 0.064 under setting [2].

Take PQGDEEDIASRYPTLWTEQVKSRQ [SMOC2]: the protein stability index runs as follows: under setting [1], 4.55 ± 0.17; under setting [2], 4.52 ± 0.091.

For PREHHGRGGMLSASAETLPAGFRV [PPFIA4], the protein stability index stood at 3.5 ± 0.44 under setting [1] and 3.95 ± 0.076 under setting [2].

Regarding PRGARCSNGFPERDPPRPGPSRPA [GCH1], the protein stability index is, setting by setting: under setting [1], 4.71 ± 0.064; under setting [2], 4.47 ± 0.38.

On to PRLQELLGPSPQRDPQAVKERALS [ZNF263], for which the protein stability index by setting is: under setting [1], 4.6 ± 0.27; under setting [2], 4.65 ± 0.3.

For the sequence PRNGDQWHEIRQGRLPRIPQVLSQ [WEE1], the protein stability index is, setting by setting: under setting [1], 3.12 ± 0.17; under setting [2], 3.32 ± 0.5.

As for PRNKTENGLTPKKKIQVNSKPSIQ [ATF6], the protein stability index is, setting by setting: under setting [1], 4.24 ± 0.31; under setting [2], 3.96 ± 0.17.
